Patent publication US20140010817A1 (Daiichi Sankyo, published 2014)
Substitutions are numbered along the chain they refer to.

B1: chimerized MAb1 (rat-human chimeric antibody) (antibody, V domains shown)
VH: EVQLVESGGGLVQPGRSLKLSCVGSGFTFSDYYMAWVRQAPKKGLEWVASISYEGSNTNFGDSVKGRFTISRDSAKSTLYLQMNSLRSEDTATYYCARWAQTGYYFDYWGQGVMVTVSS
VL: DIQMTQSPASLSASLGETVTIECLASEDIYSNLAWYQQKPGKSPQLLIYYANSLNDGVPSRFSGSGSGTQFSLKINSLQSEDVSIYFCQQNYDSPYTFGAGAKLELKRA
B2: Monoclonal Antibody 3 (MAb3) (antibody, V domains shown)
VH: QVKLEESGGGLVKPGGSLKLSCAASGFSFSRNVMSWVRQTPEKRLEWVATISAGGSYTYYPDSVKGRFTISRDNAKNTLYLQMSSLRSEDTAMYYCARLNYNDNGNYFDYWGQGTTLTVSS
VL: DIVMTQSTAIMSASLGEKVTMSCRASSSVVYMYWYQQKSDASPKLWIYYTSNLAPGVPARFSGSGSGNSYSLTISSMEGEDAATYYCQQFTSSPYTFGGGTKLEIKR
B3: Monoclonal Antibody 2 (MAb2) (antibody, V domains shown)
VH: EVKLQESGPELKKPGETVKISCKASGYTFRDYPIHWVKQAPGKGLKWMGWINTETGEPTYADDFKGRFAFSLETSANTTYLQINNLKNEDTATYFCTPRFTYWGQGTLVTVSS
VL: DIVMTQTPSSLAVSVGEKVTMSCKSSQNLLYSGNQKNYLAWFQQKPGQSPKLLIYWASTRESGVPDRFTGSGSGTDFTLTLSSVKAEDLAVYYCQQSYRYPYTSGGGTKLEIKR
B4: Monoclonal Antibody 1 (MAb1) (antibody)
heavy: EVQLVESGGGLVQPGRSLKLSCVGSGFTFSDYYMAWVRQAPKKGLEWVASISYEGSNTNFGDSVKGRFTISRDSAKSTLYLQMNSLRSEDTATYYCARWAQTGYYFDYWGQGVMVTVSSAETTAPSVYPLAPGTALKSNSMVTLGCLVKGYFPEPVTVTWNSGALSSGVHTFPAVLQSGLYTLTSSVTVPSSTWSSQAVTCNVAHPASSTKVDKKIVPRECNPCGCTGSEVSSVFIFPPKTKDVLTITLTPKVTCVVVDISQNDPEVRFSWFIDDVEVHTAQTHAPEKQSNSTLRSVSELPIVHRDWLNGKTFKCKVNSGAFPAPIEKSISKPEGTPRGPQVYTMAPPKEEMTQSQVSITCMVKGFYPPDIYTEWKMNGQPQENYKNTPPTMDTDGSYFLYSKLNVKKETWQQGNTFTCSVLHEGLHNHHTEKSLSHSPGK
light: DIQMTQSPASLSASLGETVTIECLASEDIYSNLAWYQQKPGKSPQLLIYYANSLNDGVPSRFSGSGSGTQFSLKINSLQSEDVSIYFCQQNYDSPYTFGAGAKLELKRADAAPTVSIFPPSTKQLATGGASVVCLMNNFYPRDISVKWKIDGTERRDGVLDSVTDQDSKDSTYSMSSTLSLTKADYESHNLYTCEVVHKTSSSPVVKSFNRNEC
notes: also called rat antibody MAb1; recombinant MAb1
B5: Monoclonal Antibody 4 (MAb4) (antibody, V domains shown)
VH: QVKLEESGAELVKPGASVKMSCKASGYTFTIYNIHWVKQTPRQGLEWIGTIFPVNGDTSYNQRFKGKATLTADKSSNTAYMQLSGLTSEDSALYYCARSTTARAWFPYWGQGTLVTVSA
VL: HIVITQTQKFMSTSVGDRVSVTCKASQNVGSNVAWYQQKPGQSPKVLIYSASYRYSGVPDRFTGSGSGTDFTLTISNVQSEDLADFFCQQYNTSPFTFGGGTKLEIK
B6: humanized antibody T14 (antibody, V domains shown)
VH: EVQLVESGGGLVQPGRSLRLSCAASGFTFSDYYMAWVRQAPGKGLEWVASISYEGSNTNFGDSVKGRFTISRDSSKNTLYLKMNSLRAEDTAVYYCARWAQTGYYFDYWGQGTLVTVSS
VL: DIQMTQSPSSLSASVGDRVTITCLASEDIYSNLAWYQQKPGKSPKLLIYYANSLNDGVPSRFSGSGSGTDFTLTISRLQPEDFATYYCQQNYDSPYTFGQGTKVEIKR
notes: also called humanized MAb1 (H5/L2)
B7: humanized antibody T16 (antibody, V domains shown)
VH: B6 VH with A24G, S74N
VL: B6 VL
notes: also called humanized MAb1 (H6/L2)
B8: humanized antibody T19 (antibody)
heavy: not shown
light: DIQMTQSPSSLSASVGDRVTITCLASEDIYSNLAWYQQKPGKAPKLLIYYANSLNDGVPSRFSGSGSGTDFTLTISRLQPEDFATYYCQQNYDSPYTFGQGTKVEIKRTVAAPSVFIFPPSDEQLKSGTASVVCLLNNFYPREAKVQWKVDNALQSGNSQESVTEQDSKDSTYSLSSTLTLSKADYEKHKVYACEVTHQGLSSPVTKSFNRGEC
notes: also called humanized MAb1 (H8/L1)
B9: humanized antibody T9 (antibody, V domains shown)
VH: B6 VH with A24G
VL: B6 VL
notes: also called humanized MAb1 (H3/L2)
B10: humanized antibody T1 (antibody, V domains shown)
VH: B6 VH with A49S, S74N
VL: B6 VL with S43A
notes: also called humanized MAb1 (H1/L1)
B11: humanized antibody T21 (antibody)
heavy: not shown
light: B8 light
notes: also called humanized MAb1 (H10/L1)
B12: humanized antibody T2 (antibody, V domains shown)
VH: B6 VH with A49S, S74N
VL: B6 VL
notes: also called humanized MAb1 (H1/L2)
B13: humanized antibody T15 (antibody, V domains shown)
VH: B6 VH
VL: B6 VL with R77S
notes: also called humanized MAb1 (H5/L5)
B14: humanized antibody T17 (antibody, V domains shown)
VH: B6 VH with A24G, S74N
VL: B6 VL with R77S
notes: also called humanized MAb1 (H6/L5)
B15: humanized antibody T6 (antibody, V domains shown)
VH: B6 VH with S74N
VL: B6 VL with K45Q, Y87F
notes: also called humanized MAb1 (H2/L3)
B16: humanized antibody T4 (antibody, V domains shown)
VH: B6 VH with S74N
VL: B6 VL with S43A
notes: also called humanized MAb1 (H2/L1)
B17: humanized antibody T18 (antibody, V domains shown)
VH: B6 VH with A24G, K82Q
VL: B6 VL
notes: also called humanized MAb1 (H7/L2)
B18: humanized antibody T10 (antibody, V domains shown)
VH: B6 VH with A24G
VL: B6 VL with K45Q, Y87F
notes: also called humanized MAb1 (H3/L3)
B19: humanized antibody T3 (antibody, V domains shown)
VH: B6 VH with A49S, S74N
VL: B6 VL with K45Q, Y87F
notes: also called humanized MAb1 (H1/L3)
B20: humanized antibody T8 (antibody, V domains shown)
VH: B6 VH with A24G
VL: B6 VL with S43A
notes: also called humanized MAb1 (H3/L1)
B21: humanized antibody T11 (antibody, V domains shown)
VH: B6 VH with A24G
VL: B6 VL with R77S
notes: also called humanized MAb1 (H3/L5)
B22: humanized antibody T12 (antibody, V domains shown)
VH: B6 VH with A24G, S75A
VL: B6 VL with K45Q, Y87F, V104L
notes: also called humanized MAb1 (H4/L4)

The binders below were run against T1, RX protein purified from the culture supernatant of ADSF cells (murine mammary tumor virus (MMTV) …, UniProt P03374 99-474; P03374 475-651) (assay: SPR).
T1 construct: also called purified RX protein; ADSF cell-derived RX protein
For B1, the Kd was 0.22 nM.

These binders were tested against T1, RX protein purified from the culture … (assay: SPR (ProteOn XPR36), antibody immobilized by amine coupling, RX protein as analyte).
From the text: (§1) Each antibody was immobilized on a sensor chip (Sensor Chip GLM; Bio-Rad Laboratories, Inc.) by the amine coupling method. The chip was blocked by the addition of 1 M ethanolamine hydrochloride (pH 8.5). ProteOn PBS/Tween, pH 7.4 (PBS, pH 7.4, 0.005% Tween 20) was used as a running buffer solution. The purified RX protein was serially diluted and interacted as an analyte with the immobilized monoclonal antibody to determine the binding affinity. The association rate constant ka and the dissociation rate constant kd were calculated by kinetics analysis using ProteOn Manager™.
B2 was tested, and the Kd was roughly 0.1 nM. B3 gave a Kd of roughly 0.1 nM. Binder B4 has a Kd of roughly 0.1 nM.

What follows are binders tested against T1, RX protein purified from the culture … (assay: SPR (ProteOn XPR36) by the method of Example 4: antibody immobilized, RX protein as analyte).
From the text: as §1
For B5, the Kd was 0.14 nM.

These binders were tested against T1, RX protein purified from the culture … (assay: SPR (ProteOn XPR36), humanized MAb1 captured on immobilised Protein A/G, RX protein as analyte).
Method: Specifically, a Protein A-Protein G fusion protein Protein A/G (Thermo Fisher Scientific K.K.) was immobilized on the GLM sensor chip of ProteOn XPR36 (Bio-Rad Laboratories, Inc.) by the amine coupling method. […] The dissociation constant, i.e., binding affinity, was calculated from the ratio therebetween.
B6 gave a Kd of 0.19 nM. B7 gave a Kd of 1.9 nM. B8 showed a Kd of 0.69 nM. Work on B9 yielded a Kd of 0.25 nM. For B10, the Kd was 2.5 nM. Binder B11 has a Kd of 0.42 nM. B12 was tested, and the Kd was 1.9 nM. In the case of B13, the Kd is reported as 0.26 nM. B14 gave a Kd of 2 nM. In the case of B15, the Kd is reported as 2 nM. For B16, the Kd was 2 nM. B17 gave a Kd of 0.22 nM. B18 was tested, and the Kd was 0.47 nM. B19 gave a Kd of 2.5 nM. B20 showed a Kd of 0.17 nM. For B21, the Kd was 0.37 nM. B22 showed a Kd of 0.32 nM.

The binders below were run against T1, RX protein purified from the culture … (assay: SPR (ProteOn XPR36), antibody immobilised by amine coupling on a GLM chip, purified RX protein as analyte).
From the text: as §1
For B2, the Kd was 0.62 nM, the koff was 0.0017 s⁻¹ and the kon was 2.8e+06 M⁻¹ s⁻¹. B3 gave a Kd of 0.26 nM, a koff of 0.00021 s⁻¹ and a kon of 810000 M⁻¹ s⁻¹. B4 showed a Kd of 0.16 nM.
